Reference: article doi:10.1101/2020.08.06.225375 (bioRxiv, 2020)

B1: M. smegmatis ATP synthase subunit a (natural protein)
chain: MLAAEEGGAAIHVGHHTLVFELFGMTFNGDTILATAVTAVIVIALAFYLRAKVTSTGVPSGVQLFWEALTIQMRQQIEGSIGMKIAPFVLPLSVTIFVFILISNWLAVLPLQYGGADGAAAELYKAPASDINFVLALALFVFVCYHAAGIWRRGIVGHPIKVVKGHVAFLAPINIVEELAKPISLALRLFGNIFAGGILVALIAMFPWYIQWFPNAVWKTFDLFVGLIQAFIFSLLTILYFSQSMELDHEDH
B2: M. smegmatis ATP synthase subunit b-δ (b-δ fusion protein) (natural protein)
chain: MSIFIGQLIGFAVIAFIIVKWVVPPVRTLMRNQQEAVRAALAESAEAAKKLADADAMHAKALADAKAESEKVTEEAKQDSERIAAQLSEQAGSEAERIKAQGAQQIQLMRQQLIRQLRTGLGAEAVNKAAEIVRAHVADPQAQSATVDRFLSELEQMAPSSVVIDTAATSRLRAASRQSLAALVEKFDSVAGGLDADGLTNLADELASVAKLLLSETALNKHLAEPTDDSAPKVRLLERLLSDKVSATTLDLLRTAVSNRWSTESNLIDAVEHTARLALLKRAEIAGEVDEVEEQLFRFGRVLDAEPRLSALLSDYTTPAEGRVALLDKALTGRPGVNQTAAALLSQTVGLLRGERADEAVIDLAELAVSRRGEVVAHVSAAAELSDAQRTRLTEVLSRIYGRPVSVQLHVDPELLGGLSITVGDEVIDGSIASRLAAAQTGLPD
B3: M. smegmatis ATP synthase subunit β with C-terminal 3×FLAG tag (natural protein)
chain: MTATAEKTAGRVVRITGPVVDVEFPRGSVPELFNALHAEITFGALAKTLTLEVAQHLGDSLVRCISMQPTDGLVRGVEVTDTGASISVPVGDGVKGHVFNALGDCLDDPGYGKDFEHWSIHRKPPAFSDLEPRTEMLETGLKVVDLLTPYVRGGKIALFGGAGVGKTVLIQEMINRIARNFGGTSVFAGVGERTREGNDLWVELADANVLKDTALVFGQMDEPPGTRMRVALSALTMAEFFRDEQGQDVLLFIDNIFRFTQAGSEVSTLLGRMPSAVGYQPTLADEMGELQERITSTRGRSITSMQAVYVPADDYTDPAPATTFAHLDATTELSRAVFSKGIFPAVDPLASSSTILDPAIVGDEHYRVAQEVIRILQRYKDLQDIIAILGIDELSEEDKQLVNRARRIERFLSQNMMAAEQFTGQPGSTVPLKETIEAFDKLTKGEFDHLPEQAFFLIGGLDDLAKKAESLGAKL

Columns and labels:
Assay in all cases: cryo-EM structure
[1] = biological target: B3
[2] = biological target: B2
[3] = biological target: M. smegmatis ATP synthase subunit α (M. smegmatis, UniProt A0R202 1-548)
[4] = biological target: B1
[5] = biological target: the molecule itself

M. smegmatis ATP synthase subunit α, sequence (A0R202 whole entry): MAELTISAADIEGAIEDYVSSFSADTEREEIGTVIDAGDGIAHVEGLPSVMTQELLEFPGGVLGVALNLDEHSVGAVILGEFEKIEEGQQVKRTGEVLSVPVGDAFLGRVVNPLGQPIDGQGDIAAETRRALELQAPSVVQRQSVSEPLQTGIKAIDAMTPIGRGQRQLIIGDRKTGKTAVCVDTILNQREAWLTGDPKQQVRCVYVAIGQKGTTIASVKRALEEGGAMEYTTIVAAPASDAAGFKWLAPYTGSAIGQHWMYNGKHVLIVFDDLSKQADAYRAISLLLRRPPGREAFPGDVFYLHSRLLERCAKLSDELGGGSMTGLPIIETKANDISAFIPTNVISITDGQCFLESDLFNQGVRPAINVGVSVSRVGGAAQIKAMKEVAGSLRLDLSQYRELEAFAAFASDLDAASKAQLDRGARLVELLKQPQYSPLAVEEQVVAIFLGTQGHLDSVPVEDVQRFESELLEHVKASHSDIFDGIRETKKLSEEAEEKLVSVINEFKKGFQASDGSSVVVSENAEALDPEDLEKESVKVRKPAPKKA

Binder	binding result [1]	binding result [2]	binding result [3]	binding result [4]	stoichiometry N [5]
B1	binds	binds	–	–	–
M. smegmatis ATP synthase subunit γ (natural protein) MAATLRELRGRIRSAGSIKKITKAQELIATSRIAKAQARVEAARPYAAEITNMLTELAGASALDHPLLVERKQPKRAGVLVVSSDRGLCGAYNANVLRRAEELFSLLRDEGKDPVLYVVGRKALGYFSFRQRTVVESWTGFSERPTYENAREIADTLVNAFMAGADDEGDDAGADGILGVDELHIVFTEFRSMLSQTAVARRAAPMEVEYVGEVETGPRTLYSFEPDPETLFDALLPRYIATRVYAALLEAAASESASRRRAMKSATDNADDLIKALTLAANRERQAQITQEISEIVGGANALAGSK	binds	–	binds	–	–
B2	binds	–	binds	–	–
B3	–	–	binds	–	–
M. smegmatis ATP synthase subunit ε (natural protein) MADLNVEIVAVERELWSGPATFVFTRTTAGEIGILPRHIPLVAQLVDDAMVRVEREGEDDLRIAVDGGFLSVTEETVRILVENAQFESEIDADAAKEDAASDDERTAAWGRARLRALGQID	binds	–	–	–	–
M. smegmatis ATP synthase subunit b′ (natural protein) MGEFSATILAASQAAEEGGGGSNFLIPNGTFFAVLIIFLIVLGVISKWVVPPISKVLAEREAMLAKTAADNRKSAEQVAAAQADYEKEMAEARAQASALRDEARAAGRSVVDEKRAQASGEVAQTLTQADQQLSAQGDQVRSGLESSVDGLSAKLASRILGVDVNSGGTQ	binds	–	–	binds	–
M. smegmatis ATP synthase subunit c (natural protein) MDLDPNAIITAGALIGGGLIMGGGAIGAGIGDGIAGNALISGIARQPEAQGRLFTPFFITVGLVEAAYFINLAFMALFVFATPGLQ	binds	–	–	binds	9
